From patent US10941182 (Amgen, dated 2021)
Starred links: 1 amine or outer side, 2 acyl side, 3 side chain; linkers in the order of their positions; H or OH if unused. Non-standard residues stand in square brackets, D forms with d. *: point of attachment. NPipG = 2-(piperidin-4-ylamino)acetic acid, O=C(CN(C1CCN([*:3])CC1)[*:1])[*:2]; Oic = O=C(O)[C@@H]1C[C@@H]2CCCC[C@@H]2N1; Phe(4-Cl) = N[C@@H](Cc1ccc(Cl)cc1)C(=O)O; γGlu = O=C(O)[C@H](CCC(=O)[*:2])N[*:1]; d(β3hF) = N[C@@H](CC(=O)O)Cc1ccccc1; Igl = N[C@H](C(=O)O)C1Cc2ccccc2C1; NMeR = CN[C@@H](CCCNC(=N)N)C(=O)O; Palmitoyl = CCCCCCCCCCCCCCCC(=O)*; Cha = N[C@@H](CC1CCCCC1)C(=O)O; β3hP = O=C(O)C[C@@H]1CCCN1; Nle = CCCC[C@H](N)C(=O)O; Dap = NC[C@H](N)C(=O)O; AEEA = NCCOCCOCC(=O)O; Sar = CNCC(=O)O

B1: SEQ ID NO: 624 (peptide)
peptide: Palmitoyl-[γGlu][AEEA][AEEA][dQ]RP[NMeR][Cha]SH[Dap]G[Oic][Nle][β3hP][d(β3hF)]-OH
SMILES: CCCCCCCCCCCCCCCC(=O)N[C@@H](CCC(=O)NCCOCCOCC(=O)NCCOCCOCC(=O)N[C@H](CCC(N)=O)C(=O)N[C@@H](CCCNC(=N)N)C(=O)N1CCC[C@H]1C(=O)N(C)[C@@H](CCCNC(=N)N)C(=O)N[C@@H](CC1CCCCC1)C(=O)N[C@@H](CO)C(=O)N[C@@H](Cc1c[nH]cn1)C(=O)N[C@@H](CN)C(=O)NCC(=O)N1[C@H](C(=O)N[C@@H](CCCC)C(=O)N2CCC[C@H]2CC(=O)N[C@@H](CC(=O)O)Cc2ccccc2)C[C@@H]2CCCC[C@@H]21)C(=O)O
B2: SEQ ID NO: 625 (peptide)
peptide: Palmitoyl-[γGlu][AEEA][AEEA][dQ]RP[NMeR][Cha]SH[Igl]G[Oic][Nle][β3hP][d(β3hF)]-OH
SMILES: CCCCCCCCCCCCCCCC(=O)N[C@@H](CCC(=O)NCCOCCOCC(=O)NCCOCCOCC(=O)N[C@H](CCC(N)=O)C(=O)N[C@@H](CCCNC(=N)N)C(=O)N1CCC[C@H]1C(=O)N(C)[C@@H](CCCNC(=N)N)C(=O)N[C@@H](CC1CCCCC1)C(=O)N[C@@H](CO)C(=O)N[C@@H](Cc1c[nH]cn1)C(=O)N[C@H](C(=O)NCC(=O)N1[C@H](C(=O)N[C@@H](CCCC)C(=O)N2CCC[C@H]2CC(=O)N[C@@H](CC(=O)O)Cc2ccccc2)C[C@@H]2CCCC[C@@H]21)C1Cc2ccccc2C1)C(=O)O
B3: SEQ ID NO: 633 (peptide)
peptide: Palmitoyl-[γGlu][AEEA][AEEA][dQ]RP[NMeR][Cha]SH[NPipG]G[Oic][Nle][β3hP][d(β3hF)]-OH
SMILES: CCCCCCCCCCCCCCCC(=O)N[C@@H](CCC(=O)NCCOCCOCC(=O)NCCOCCOCC(=O)N[C@H](CCC(N)=O)C(=O)N[C@@H](CCCNC(=N)N)C(=O)N1CCC[C@H]1C(=O)N(C)[C@@H](CCCNC(=N)N)C(=O)N[C@@H](CC1CCCCC1)C(=O)N[C@@H](CO)C(=O)N[C@@H](Cc1c[nH]cn1)C(=O)N(CC(=O)NCC(=O)N1[C@H](C(=O)N[C@@H](CCCC)C(=O)N2CCC[C@H]2CC(=O)N[C@@H](CC(=O)O)Cc2ccccc2)C[C@@H]2CCCC[C@@H]21)C1CCNCC1)C(=O)O
B4: SEQ ID NO: 626 (peptide)
peptide: Palmitoyl-[γGlu][AEEA][AEEA][dQ]RP[NMeR][Cha]SHK[Sar][Oic][Nle][β3hP][d(β3hF)]-OH
SMILES: CCCCCCCCCCCCCCCC(=O)N[C@@H](CCC(=O)NCCOCCOCC(=O)NCCOCCOCC(=O)N[C@H](CCC(N)=O)C(=O)N[C@@H](CCCNC(=N)N)C(=O)N1CCC[C@H]1C(=O)N(C)[C@@H](CCCNC(=N)N)C(=O)N[C@@H](CC1CCCCC1)C(=O)N[C@@H](CO)C(=O)N[C@@H](Cc1c[nH]cn1)C(=O)N[C@@H](CCCCN)C(=O)N(C)CC(=O)N1[C@H](C(=O)N[C@@H](CCCC)C(=O)N2CCC[C@H]2CC(=O)N[C@@H](CC(=O)O)Cc2ccccc2)C[C@@H]2CCCC[C@@H]21)C(=O)O
B5: SEQ ID NO: 613 (peptide)
peptide: Palmitoyl-[γGlu][AEEA][AEEA][dQ]RP[NMeR][Cha]SHKG[β3hP][Nle][Phe(4-Cl)]-OH
SMILES: CCCCCCCCCCCCCCCC(=O)N[C@@H](CCC(=O)NCCOCCOCC(=O)NCCOCCOCC(=O)N[C@H](CCC(N)=O)C(=O)N[C@@H](CCCNC(=N)N)C(=O)N1CCC[C@H]1C(=O)N(C)[C@@H](CCCNC(=N)N)C(=O)N[C@@H](CC1CCCCC1)C(=O)N[C@@H](CO)C(=O)N[C@@H](Cc1c[nH]cn1)C(=O)N[C@@H](CCCCN)C(=O)NCC(=O)N1CCC[C@H]1CC(=O)N[C@@H](CCCC)C(=O)N[C@@H](Cc1ccc(Cl)cc1)C(=O)O)C(=O)O

Biological target: T1, human APJ receptor (human, UniProt P35414 1-380)
T1 sequence (looked up): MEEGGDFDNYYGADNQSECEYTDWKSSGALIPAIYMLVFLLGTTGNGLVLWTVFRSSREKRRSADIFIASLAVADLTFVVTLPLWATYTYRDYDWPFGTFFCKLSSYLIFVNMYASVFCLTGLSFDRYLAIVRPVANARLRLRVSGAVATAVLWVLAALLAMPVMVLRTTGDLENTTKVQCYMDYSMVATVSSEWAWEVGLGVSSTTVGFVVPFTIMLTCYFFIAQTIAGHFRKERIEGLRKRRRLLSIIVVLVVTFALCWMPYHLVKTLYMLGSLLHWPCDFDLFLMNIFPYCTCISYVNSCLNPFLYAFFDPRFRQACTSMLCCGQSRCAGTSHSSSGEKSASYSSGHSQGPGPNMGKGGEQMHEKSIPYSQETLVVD
Experiment: cell-based or functional assay

Binder	EC50 Human APJ Receptor [nM]
B1	21.1
B2	11.1
B3	10.7
B4	12.2
B5	1.66

Biological target: T2, rat APJ receptor (rat, UniProt Q9JHG3 1-377)
T2 sequence (looked up): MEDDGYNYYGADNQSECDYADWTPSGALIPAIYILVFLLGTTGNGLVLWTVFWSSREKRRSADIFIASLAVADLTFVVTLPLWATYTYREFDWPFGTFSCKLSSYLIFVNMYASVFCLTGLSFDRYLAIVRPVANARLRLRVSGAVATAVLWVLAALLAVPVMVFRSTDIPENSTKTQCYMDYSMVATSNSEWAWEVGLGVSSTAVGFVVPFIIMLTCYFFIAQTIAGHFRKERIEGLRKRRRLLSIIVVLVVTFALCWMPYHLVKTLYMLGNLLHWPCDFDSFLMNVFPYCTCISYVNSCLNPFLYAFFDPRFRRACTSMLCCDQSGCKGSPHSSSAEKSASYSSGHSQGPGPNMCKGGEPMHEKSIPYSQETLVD
Experiment: cell-based or functional assay

Binder	EC50 Rat APJ Receptor [nM]
B1	99.7
B2	20
B3	> 4170
B4	24.6
B5	38.8
